Common to all, as to assay: ELONA; RPB-ELISA
For data set [1], the target named is T1, v3.1_PPR21 (Artificial Sequence).
T1 chain: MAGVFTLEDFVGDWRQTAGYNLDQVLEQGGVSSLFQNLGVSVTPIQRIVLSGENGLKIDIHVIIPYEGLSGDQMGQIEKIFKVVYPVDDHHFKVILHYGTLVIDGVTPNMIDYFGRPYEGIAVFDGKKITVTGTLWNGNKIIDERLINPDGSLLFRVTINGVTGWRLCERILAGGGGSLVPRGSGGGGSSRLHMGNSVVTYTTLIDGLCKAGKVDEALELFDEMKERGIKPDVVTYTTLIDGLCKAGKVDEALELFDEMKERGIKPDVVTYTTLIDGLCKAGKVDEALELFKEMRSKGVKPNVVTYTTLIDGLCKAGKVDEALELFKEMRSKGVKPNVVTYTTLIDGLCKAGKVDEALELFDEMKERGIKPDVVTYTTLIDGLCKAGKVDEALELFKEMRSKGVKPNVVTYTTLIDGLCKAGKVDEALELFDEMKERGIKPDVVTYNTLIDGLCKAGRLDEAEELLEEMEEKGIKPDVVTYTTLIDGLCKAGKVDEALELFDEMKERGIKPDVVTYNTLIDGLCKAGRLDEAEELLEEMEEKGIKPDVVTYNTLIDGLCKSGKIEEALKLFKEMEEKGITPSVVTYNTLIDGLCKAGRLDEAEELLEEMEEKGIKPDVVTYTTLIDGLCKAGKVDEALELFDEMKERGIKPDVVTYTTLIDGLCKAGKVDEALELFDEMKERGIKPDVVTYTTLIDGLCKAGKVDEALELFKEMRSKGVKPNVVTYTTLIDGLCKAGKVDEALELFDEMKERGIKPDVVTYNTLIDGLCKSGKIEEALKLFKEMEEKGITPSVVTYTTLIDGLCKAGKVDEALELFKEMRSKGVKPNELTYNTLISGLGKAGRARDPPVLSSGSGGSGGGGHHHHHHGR
As to conditions: tags: luciferase fusion; label: 5'-biotin.

In data set [2] the target is T2, NL_v2_PPR21 (Artificial Sequence).
T2 chain: T1 chain with K283D, K318D, K388D, K703D, K808D
As to conditions: tags: N-term luciferase, C-term 6xHis; label: 5'-biotin.

The target of data set [3] is T3, v3.1_PPR22 (Artificial Sequence).
T3 chain: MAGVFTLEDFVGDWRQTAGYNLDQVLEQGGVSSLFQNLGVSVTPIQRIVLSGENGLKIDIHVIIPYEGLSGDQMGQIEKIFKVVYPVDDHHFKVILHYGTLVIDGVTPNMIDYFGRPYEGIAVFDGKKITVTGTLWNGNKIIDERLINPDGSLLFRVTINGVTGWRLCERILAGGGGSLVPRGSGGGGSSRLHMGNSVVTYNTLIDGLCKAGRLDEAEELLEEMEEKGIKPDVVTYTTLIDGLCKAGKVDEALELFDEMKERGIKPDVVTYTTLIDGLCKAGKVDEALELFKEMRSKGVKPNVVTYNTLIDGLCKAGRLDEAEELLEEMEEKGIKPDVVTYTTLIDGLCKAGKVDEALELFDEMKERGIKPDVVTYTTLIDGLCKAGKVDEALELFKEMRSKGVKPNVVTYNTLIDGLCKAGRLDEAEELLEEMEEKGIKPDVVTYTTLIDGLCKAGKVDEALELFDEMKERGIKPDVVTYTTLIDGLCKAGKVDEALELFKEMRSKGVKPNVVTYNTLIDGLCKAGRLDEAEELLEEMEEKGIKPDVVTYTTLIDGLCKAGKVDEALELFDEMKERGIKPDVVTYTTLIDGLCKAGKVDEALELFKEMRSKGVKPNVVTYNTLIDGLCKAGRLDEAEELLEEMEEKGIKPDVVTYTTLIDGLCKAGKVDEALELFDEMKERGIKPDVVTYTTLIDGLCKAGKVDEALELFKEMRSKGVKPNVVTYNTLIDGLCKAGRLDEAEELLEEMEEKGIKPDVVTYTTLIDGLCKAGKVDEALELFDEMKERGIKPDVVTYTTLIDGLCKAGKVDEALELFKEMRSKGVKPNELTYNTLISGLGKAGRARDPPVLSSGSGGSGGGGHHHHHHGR
Conditions: tags: luciferase fusion; label: 5'-biotin.

Data set [4] addresses T4, NL_v2_PPR22 (Artificial Sequence).
T4 chain: T3 chain with K283D, K388D, K493D, K598D, K703D, K808D
As to conditions: tags: N-term luciferase, C-term 6xHis; label: 5'-biotin.

Data set [5] addresses T5, NL_v2_PPR23 (Artificial Sequence).
T5 chain: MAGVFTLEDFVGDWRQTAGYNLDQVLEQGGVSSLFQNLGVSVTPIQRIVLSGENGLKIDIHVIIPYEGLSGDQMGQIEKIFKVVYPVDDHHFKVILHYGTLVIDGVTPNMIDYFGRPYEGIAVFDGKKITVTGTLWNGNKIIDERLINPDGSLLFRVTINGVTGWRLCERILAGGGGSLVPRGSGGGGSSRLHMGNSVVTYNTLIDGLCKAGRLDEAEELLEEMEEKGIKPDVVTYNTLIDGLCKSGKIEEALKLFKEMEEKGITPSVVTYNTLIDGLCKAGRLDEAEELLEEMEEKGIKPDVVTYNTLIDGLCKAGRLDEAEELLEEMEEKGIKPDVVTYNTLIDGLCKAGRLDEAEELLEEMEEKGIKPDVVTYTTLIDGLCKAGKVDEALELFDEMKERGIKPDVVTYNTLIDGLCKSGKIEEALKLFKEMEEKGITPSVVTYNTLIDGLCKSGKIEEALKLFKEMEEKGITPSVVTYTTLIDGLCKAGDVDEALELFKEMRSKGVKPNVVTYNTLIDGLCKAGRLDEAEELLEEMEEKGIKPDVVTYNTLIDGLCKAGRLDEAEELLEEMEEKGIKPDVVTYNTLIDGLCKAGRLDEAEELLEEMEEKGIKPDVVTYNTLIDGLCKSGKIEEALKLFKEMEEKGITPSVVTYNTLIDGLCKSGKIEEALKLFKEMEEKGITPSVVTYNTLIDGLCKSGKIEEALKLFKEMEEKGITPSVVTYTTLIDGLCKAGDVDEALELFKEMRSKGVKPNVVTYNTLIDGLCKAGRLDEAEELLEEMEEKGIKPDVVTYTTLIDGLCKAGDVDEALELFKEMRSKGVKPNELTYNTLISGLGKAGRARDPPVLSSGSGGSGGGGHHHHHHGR
As to conditions: tags: N-term luciferase, C-term 6xHis; label: 5'-biotin.

The target of data set [6] is T6, v3.1_PPR23 (Artificial Sequence).
T6 chain: T5 chain with D493K, D738K, D808K
Conditions: tags: luciferase fusion; label: 5'-biotin.

Where a chain is given by its changes, count along the chain named.

For the molecule GACAUGCGGAAGAGUGUCUGGAGCAGACUG (ssRNA) [RNA_21], the binding signal in data set [1] is 4.9e+06 luminescence; in data set [2], 5e+07 luminescence.

For the molecule GACAUGCUGAUGAUGAUGAUGAUGAGACUG (ssRNA) [RNA_22], the binding signal in data set [3] was found to be 5.5e+07 luminescence; in data set [4], 5.6e+07 luminescence.

Turning to GACAUGCUCUUUGCCAUUUCCCAUAGACUG (ssRNA) [RNA_23], the binding signal came to 2.6e+07 luminescence in data set [5] and 5.3e+07 luminescence in data set [6].

Values taken from US20220289795, “EFFICIENT METHOD FOR PREPARING PPR PROTEIN AND USE OF THE SAME” (EditForce, Inc., published 2022).
